Each substance was assayed against HLA-A*02:01 (Homo sapiens, UniProt P04439, D140Y/D185E/D98H/E176V/E277Q/G131W/G231S/I119V/I121R/I166T/I218V/L300P/L318F/N151K/N90K/P208A/P217A/Q86G/Q94H/R138H/R169H/T345S) (assay: MHC binding assay (UV-ligand exchange, β2m ELISA)). Conditions: MHC class I binding score; binding to HLA-A*02:01 ranged by peptide exchange yield (UV-ligand exchange, β2m ELISA).
Excerpt: Candidate peptides for T cell based therapies according to the present invention were further tested for their MHC binding capacity (affinity). The individual peptide-MHC complexes were produced by UV-ligand exchange, where a UV-sensitive peptide is cleaved upon UV-irradiation, and exchanged with the peptide of interest as analyzed. Only peptide candidates that can effectively bind and stabilize the peptide-receptive MHC molecules prevent dissociation of the MHC complexes. To determine the yield of the exchange reaction, an ELISA was performed based on the detection of the light chain (β2m) of stabilized MHC complexes. The assay was performed as generally described in Rodenko et al. (Rodenko et al., 2006).
96 well MAXISorp plates (NUNC) were coated over night with 2 ug/ml streptavidin in PBS at room temperature, washed 4× and blocked for 1 h at 37° C. in 2% BSA containing blocking buffer. Refolded HLA-A*02:01/MLA-001 monomers served as standards, covering the range of 15-500 ng/ml. Peptide-MHC monomers of the UV-exchange reaction were diluted 100 fold in blocking buffer. Samples were incubated for 1 h at 37° C., washed four times, incubated with 2 ug/ml HRP conjugated anti-β2m for 1 h at 37° C., washed again and detected with TMB solution that is stopped with […]. Absorption was measured at 450 nm. Candidate peptides that show a high exchange yield (preferably higher than 50%, most preferred higher than 75%) are generally preferred for a generation and production of antibodies or fragments thereof, and/or T cell receptors or fragments thereof, as they show sufficient avidity to the MHC molecules and prevent dissociation of the MHC complexes.

Substance	Peptide exchange
58 (ILGDWSIQV; listed as Homo sapiens) [compound 58]	++++ (>75% = ++++)
194 (TLDDIMAAV; listed as Homo sapiens) [compound 194]	+++ (>50 = +++)
61 (KLSVHVTAL; listed as Homo sapiens) [compound 61]	++++ (>75% = ++++)
233 (QLYNQIIKL; listed as Homo sapiens) [compound 233]	++++ (>75% = ++++)
135 (FLDDQETRL; listed as Homo sapiens) [compound 135]	+++ (>50 = +++)
103 (SLDAVMPHL; listed as Homo sapiens) [compound 103]	+++ (>50 = +++)
96 (LLDMSLVKL; listed as Homo sapiens) [compound 96]	+++ (>50 = +++)
174 (TLLEGLTEL; listed as Homo sapiens) [compound 174]	+++ (>50 = +++)
91 (ILLDRLFSV; listed as Homo sapiens) [compound 91]	++++ (>75% = ++++)
207 (VQIGDIVTV; listed as Homo sapiens) [compound 207]	++++ (>75% = ++++)
168 (KLLAATLLL; listed as Homo sapiens) [compound 168]	++++ (>75% = ++++)
178 (FAYDGKDYIA; listed as Homo sapiens) [compound 178]	++++ (>75% = ++++)
199 (AIHTAILTL; listed as Homo sapiens) [compound 199]	++ (>20% = ++)
188 (VVVDPIQSV; listed as Homo sapiens) [compound 188]	+++ (>50 = +++)
215 (EVISKLYAV; listed as Homo sapiens) [compound 215]	+++ (>50 = +++)
42 (VLKADVVLL; listed as Homo sapiens) [compound 42]	++ (>20% = ++)
157 (HLFETISQA; listed as Homo sapiens) [compound 157]	+++ (>50 = +++)

Substance	Peptide exchange
5 (ILDEGHILQL; listed as Homo sapiens) [compound 5]	++++ (>75% = ++++)
75 (FMYAGQLTL; listed as Homo sapiens) [compound 75]	++++ (>75% = ++++)
39 (ALPPPPASI; listed as Homo sapiens) [compound 39]	+++ (>50 = +++)
44 (FLYTYIAKV; listed as Homo sapiens) [compound 44]	+++ (>50 = +++)
209 (SILDGLIHL; listed as Homo sapiens) [compound 209]	+++ (>50 = +++)
162 (TLDGNPFLV; listed as Homo sapiens) [compound 162]	+++ (>50 = +++)
79 (AVDNILLKL; listed as Homo sapiens) [compound 79]	+++ (>50 = +++)
25 (FIDPEQIQV; listed as Homo sapiens) [compound 25]	+++ (>50 = +++)
111 (VLDVSFNRL; listed as Homo sapiens) [compound 111]	+++ (>50 = +++)
115 (YIDDVFMGL; listed as Homo sapiens) [compound 115]	+++ (>50 = +++)
19 (VLAVLGAVVAV; listed as Homo sapiens) [compound 19]	+++ (>50 = +++)
193 (ALDEPTTNL; listed as Homo sapiens) [compound 193]	+++ (>50 = +++)
95 (LLDALQHEL; listed as Homo sapiens) [compound 95]	+++ (>50 = +++)
129 (VLPDDLSGV; listed as Homo sapiens) [compound 129]	+++ (>50 = +++)
156 (ALMDTDGSGKLNL; listed as Homo sapiens) [compound 156]	+++ (>50 = +++)
171 (KVSGVILSV; listed as Homo sapiens) [compound 171]	++++ (>75% = ++++)
